Measurements from the Human Domainome abundance scans (Beltran et al. 2025).
± gives the uncertainty stated by the source.

B1: Probable E3 ubiquitin-protein ligase MID2, residues 191 to 235; numbered along this chain, Q9UJV3 (parent)
chain: RGITCLDHENEKVNMYCVSDDQLICALCKLVGRHRDHQVASLNDR

Variants of: B1
Test: abundance fitness (aPCA) (normalised: wild type 0, dead -1); higher = more abundant; growth selection in yeast, the domain comes from the species named
Settings: Homo sapiens

In order of rising abundance fitness:
1. C25L  -1.34 ± 0.18
2. C28W  -0.997 ± 0.18
3. H8I  -0.976 ± 0.29
4. H8W  -0.97 ± 0.069
5. G32W  -0.954 ± 0.16
6. G32M  -0.899 ± 0.17
7. H8F  -0.808 ± 0.38
8. C17L  -0.775 ± 0.13
9. C5P  -0.717 ± 0.099
10. Q38F  -0.69 ± 0.18
11. G32L  -0.684 ± 0.078
12. H37M  -0.684 ± 0.1
13. C28S  -0.678 ± 0.1
14. D20G  -0.589 ± 0.049
15. C5Q  -0.585 ± 0.11
16. H8G  -0.582 ± 0.048
17. C28G  -0.58 ± 0.062
18. D7P  -0.55 ± 0.07
19. D21Y  -0.527 ± 0.15
20. D21L  -0.526 ± 0.067
21. G2I  -0.522 ± 0.24
22. G32A  -0.518 ± 0.07
23. C17M  -0.517 ± 0.1
24. C28Q  -0.505 ± 0.24
25. H37R  -0.492 ± 0.061
26. S41I  -0.481 ± 0.16
27. H34A  -0.48 ± 0.062
28. R35H  -0.471 ± 0.32
29. H8E  -0.47 ± 0.061
30. C5G  -0.461 ± 0.046
31. S41W  -0.458 ± 0.1
32. D20N  -0.456 ± 0.44
33. D44L  -0.427 ± 0.1
34. C25P  -0.417 ± 0.14
35. N10V  -0.416 ± 0.06
36. H8C  -0.408 ± 0.089
37. T4L  -0.376 ± 0.067
38. H34E  -0.368 ± 0.12
39. H37Q  -0.365 ± 0.093
40. D20K  -0.357 ± 0.078
41. G32D  -0.337 ± 0.23
42. H8D  -0.335 ± 0.1
43. E11K  -0.33 ± 0.14
44. G32K  -0.316 ± 0.088
45. S41V  -0.298 ± 0.061
46. H37T  -0.295 ± 0.065
47. H37G  -0.283 ± 0.056
48. R33C  -0.28 ± 0.078
49. I24G  -0.269 ± 0.084
50. Q22I  -0.259 ± 0.19
51. Y16N  -0.251 ± 0.1
52. E11S  -0.236 ± 0.059
53. T4V  -0.235 ± 0.051
54. G2L  -0.218 ± 0.061
55. A40M  -0.216 ± 0.086
56. G2V  -0.216 ± 0.061
57. C17N  -0.212 ± 0.1
58. D44V  -0.211 ± 0.064
59. R45M  -0.201 ± 0.2
60. A40Y  -0.2 ± 0.23
61. N10G  -0.198 ± 0.044
62. L42W  -0.198 ± 0.07
63. R35T  -0.195 ± 0.072
64. R35P  -0.195 ± 0.069
65. Q22D  -0.19 ± 0.2
66. H34F  -0.184 ± 0.16
67. T4C  -0.18 ± 0.092
68. V13T  -0.179 ± 0.075
69. Y16C  -0.176 ± 0.14
70. N10C  -0.175 ± 0.068
71. N10M  -0.173 ± 0.075
72. E11R  -0.171 ± 0.05
73. D7V  -0.17 ± 0.048
74. R1I  -0.17 ± 0.095
75. A26H  -0.169 ± 0.36
76. V18I  -0.165 ± 0.089
77. D7L  -0.162 ± 0.066
78. Q38Y  -0.16 ± 0.21
79. R1A  -0.158 ± 0.069
80. V39I  -0.153 ± 0.095
81. K29V  -0.149 ± 0.089
82. I24E  -0.141 ± 0.15
83. N10R  -0.138 ± 0.048
84. S41H  -0.135 ± 0.14
85. C17G  -0.129 ± 0.058
86. V39M  -0.129 ± 0.095
87. Y16L  -0.127 ± 0.063
88. R35C  -0.126 ± 0.071
89. V18N  -0.125 ± 0.083
90. I24D  -0.121 ± 0.11
91. Q22E  -0.113 ± 0.085
92. R35Q  -0.11 ± 0.19
93. T4S  -0.105 ± 0.062
94. R45V  -0.105 ± 0.084
95. I24M  -0.104 ± 0.12
96. I3C  -0.101 ± 0.089
97. D36G  -0.098 ± 0.054
98. N43C  -0.097 ± 0.1
99. A26Y  -0.092 ± 0.16
100. Q38P  -0.092 ± 0.056
101. D21S  -0.088 ± 0.059
102. R45D  -0.087 ± 0.14
103. N14R  -0.087 ± 0.052
104. A40N  -0.082 ± 0.23
105. R1H  -0.081 ± 0.17
106. V39L  -0.079 ± 0.062
107. V13R  -0.077 ± 0.055
108. L30Y  -0.071 ± 0.1
109. M15F  -0.069 ± 0.25
110. A26T  -0.068 ± 0.075
111. S19M  -0.067 ± 0.084
112. A40C  -0.063 ± 0.068
113. E11C  -0.063 ± 0.07
114. L27G  -0.058 ± 0.049
115. N14V  -0.055 ± 0.06
116. A26K  -0.051 ± 0.094
117. E9Y  -0.051 ± 0.13
118. R35V  -0.05 ± 0.061
119. S19K  -0.049 ± 0.065
120. R33M  -0.046 ± 0.24
121. R1M  -0.044 ± 0.11
122. E9R  -0.024 ± 0.049
123. L30F  -0.022 ± 0.24
124. N43S  -0.022 ± 0.057
125. K29Q  -0.016 ± 0.063
126. L27M  -0.012 ± 0.11
127. N43G  -0.011 ± 0.056
128. C17K  -0.01 ± 0.35
129. S19G  -0.005 ± 0.047
130. L30M  0.003 ± 0.084
131. A26R  0.006 ± 0.053
132. N14K  0.015 ± 0.069
133. L30C  0.026 ± 0.075
134. E9C  0.028 ± 0.07
135. D36E  0.036 ± 0.066
136. R45P  0.041 ± 0.096
137. A40D  0.043 ± 0.077
138. L42S  0.046 ± 0.06
139. Q22K  0.05 ± 0.068
140. I24V  0.058 ± 0.11
141. V31S  0.06 ± 0.05
142. K29A  0.063 ± 0.057
143. V39H  0.067 ± 0.15
144. S19E  0.07 ± 0.057
145. V18K  0.079 ± 0.064
146. M15G  0.081 ± 0.053
147. R45S  0.084 ± 0.076
148. L30E  0.096 ± 0.059
149. L23Q  0.099 ± 0.089
150. Q38E  0.105 ± 0.054
151. V31G  0.107 ± 0.052
152. I3M  0.111 ± 0.066
153. L42A  0.118 ± 0.056
154. L30G  0.13 ± 0.06
155. L27E  0.144 ± 0.054
156. K29N  0.153 ± 0.081
157. L30A  0.159 ± 0.057
158. E9P  0.173 ± 0.058
159. L6Q  0.176 ± 0.061
160. R45A  0.178 ± 0.12
161. Y16R  0.183 ± 0.05
162. L23M  0.199 ± 0.069
163. V18T  0.2 ± 0.061
164. L27Q  0.263 ± 0.056
165. L23N  0.352 ± 0.17
166. L27K  0.517 ± 0.14
167. Y16K  0.54 ± 0.27
